The values below come from the nanobody polyreactivity screen of Harvey et al. (2022).

The nature of this data set: yeast display, Sf9 membrane polyspecificity reagent, FACS + sequencing; frameworks hold sequencing errors. The gist of the method: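 Nanobodies came from a synthetic yeast display library in Saccharomyces cerevisiae BJ5465, induced with galactose for 36–48 hours and stained for 1 hour at 4 °C with 10% biotinylated, detergent-solubilized Sf9 membrane reagent. Cells were enriched on streptavidin microbeads and then FACS-sorted, with low and high (top ~1%) gates set on anti-HA fluorescence for expression and streptavidin fluorescence for reagent binding. Each polyreactivity label reflects the gate a clone came from. Genes were amplified by colony PCR, sequenced by MiSeq 2 × 250 and filtered by CDR length.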
On to “QVQLVESGGGLVQAGGSLRLSCAASGFIIDSYAMGWYRQAPGKERELVATITKGGGRTYYADSVKGRFTISRDNAKNTVYLQMNSLKPEDTAVYYCNARGFSRRKGLDYWGQGTQVTVSS”, for which the “polyreactivity (PSR sort gate)” value is reported as “low polyreactivity”.

Consider “QVQLVESGGGLVQAGGSLRLSCAASGFIIGDYAMGWYRQAPGTERELVAAIFSVGSTYYADSVKGRFTISRDNAKNTVYLQMNSLKPEDTAVYYCAARFARYDWSMYYWGQGTQVTVSS”, for which the “polyreactivity (PSR sort gate)” value is on record as “low polyreactivity”.

Regarding “QVQLVESGGGLVQAGGSLRLSCAASGFIIIGNAMVWYRQAPGKERELVAAISRRGGSTYYADSVKGRFTISRDNAKNTVYLQMNSLKPEDTAVYYCATDPGARVHYPTGDYWGQGTQVTLSS”, the “polyreactivity (PSR sort gate)” value is given as “high polyreactivity”.

In the case of “QVQLVESGGGLVQAGGSLRLSCAASGFIIIGYVMGWYRQAPGKERELVAAITSSGGSTYYADSVKGRFTISRDHAKNTVYLQMNSLKPEDTAVYYCAAEYYLLWSGMEYWGQGTQVTVSS”, the “polyreactivity (PSR sort gate)” value is listed as “low polyreactivity”.

As to “QVQLVESGGGLVQAGGSLRLSCAASGFIILINVMGGYRQAPGNERELVAVITGGGTTNYADSVKGRFTISRDNAKNTVYLQMYSLKPEDTAVYYCAADWIVVSEFGLDYHMDYWGQGSQVTVSS”, the “polyreactivity (PSR sort gate)” value was “low polyreactivity”.

With “QVQLVESGGGLVQAGGSLRLSCAASGFIILIYAMGWYRQAPGKERELVATIRYSGGRTYYADSVKGRFTISRDNAKNTVFLQMNSLKPEDTAVDYCAADGYPTLYDYWGQGTQVTVSS”, the “polyreactivity (PSR sort gate)” value was “high polyreactivity”.

Consider “QVQLVESGGGLVQAGGSLRLSCAASGFIIPGYAMGWYRQAPGKERELVAAISSGTSTYYADSVKGRFTISRDNAKNTVYLQMNSLKPEDTAVYYCAAETWYRFGYWGQGTQVTVSS”, for which the “polyreactivity (PSR sort gate)” value was “low polyreactivity”.

Turning to “QVQLVESGGGLVQAGGSLRLSCAASGFIITQYAMGWYSQEPGKERELVAAISGNGGRTYYADSVKGRFTISRDNAKYTVYLHLISLKPEDTAVYYCAVTYYWYGVRYDYWGQCTQVTVSS”, the “polyreactivity (PSR sort gate)” value is “high polyreactivity”.

Turning to “QVQLVESGGGLVQAGGSLRLSCAASGFIIVIYAMGWYIQAPGKERELVAAIRWRGGGTYYADSVKGRFTISRDNAKNTVYLQMNSLKPEDTAVYYCNADGWTYREEYWWRMDYWGLGTQVTVSS”, the “polyreactivity (PSR sort gate)” value is reported as “low polyreactivity”.

For the sequence “QVQLVESGGGLVQAGGSLRLSCAASGFIIYGYVMGWYRQAPGKERELVAAINSSSGRTYYADSVKGRFTISRDNAKNTVYLQMNSLKPEDTAVYYCAAYYYGSYDGTPYDYWGQGTQVTVSS”, the “polyreactivity (PSR sort gate)” value is reported as “low polyreactivity”.

Take “QVQLVESGGGLVQAGGSLRLSCAASGFIIYRNARGWYRQAPGKERELVAGISSGGSTNYADSVKGRFTISRDNAKNTVYLQMTSLKPEDTADYYCATRVYALWFGRYDYWGQGTQVTVSS”: the “polyreactivity (PSR sort gate)” value is recorded as “high polyreactivity”.

For “QVQLVESGGGLVQAGGSLRLSCAASGFIKFYAMGWYRQAPGKERELVASISSGGRTNYADSVKGRFTISRDNAKNTVYLQMNSLKPEDTAVYYCAAIGWRTRSRFEYWGQGTQVTVSS”, the “polyreactivity (PSR sort gate)” value is on record as “high polyreactivity”.

Consider “QVQLVESGGGLVQAGGSLRLSCAASGFILDTYGMGWYRQAPGKERELVAAISQSDVSTYYADSVKGRFTISRDNAKNTVSLQMNSLKPEDTAVYYCAADRAGLRWFWQLLYDYWGQGTQVTVSS”, for which the “polyreactivity (PSR sort gate)” value was “low polyreactivity”.

Consider “QVQLVESGGGLVQAGGSLRLSCAASGFILDYNAMGWYRQAPGKERELVATITGRGDRTYYADSVKGRFTISRDNAKNTVYLQMNSLKPEDTAVYYCAAAYLIYSDYGPAMDYWGQGTQVTVSS”, for which the “polyreactivity (PSR sort gate)” value was “low polyreactivity”.

For the sequence “QVQLVESGGGLVQAGGSLRLSCAASGFILDYNTMGWYRQAPGKERELVAAISSSGDTTYYADSVKGRFTISRDNAKNTVYLQMNSLKPEDTAVYYCGREYGDGYEYWGQGTQVTVSS”, the “polyreactivity (PSR sort gate)” value is on record as “low polyreactivity”.

Regarding “QVQLVESGGGLVQAGGSLRLSCAASGFILEPNAMGWYRQAPGKERELVATISFSGGGTYYADSVKGRFTISRDNAKNTVYLQMNSLKPEDTAVYYCAADWYYYVWWYDYWGQGTQVTVSS”, the “polyreactivity (PSR sort gate)” value is “high polyreactivity”.

“QVQLVESGGGLVQAGGSLRLSCAASGFILGYYVMGWYRQAPGKERELVAAISSGGRTYYADSVKGRFTISRDNAKNTVYLQMNSLKPEDTAVYYCNAYAPRRRFDYWGQGTQVTVSS”: the “polyreactivity (PSR sort gate)” value is listed as “high polyreactivity”.

For the sequence “QVQLVESGGGLVQAGGSLRLSCAASGFILLYYAMGWYRQAPGKERELVAAISWTGGRTYYADSVKGRFTISRDNAKNTVYLQMNSLKPEDTAVYYCNTVKFFGRKYGYWGQGTQVTVSS”, the “polyreactivity (PSR sort gate)” value is recorded as “low polyreactivity”.

Regarding “QVQLVESGGGLVQAGGSLRLSCAASGFILPYYTMGWYRQAPGKDRELVAAITYSGASPFYADSVKGRFTISRVNAKNTVYLQMNSLKPEDTGVYYGANEWSGWYESPLDDGDYDYWGQGTEVTVSS”, the “polyreactivity (PSR sort gate)” value is listed as “low polyreactivity”.

Turning to “QVQLVESGGGLVQAGGSLRLSCAASGFILRQNVMGWYRQAPGKERELVAAISRSGGRTYYADSVKGRFTISRDNAMNTVYFQMNSLKPEDTAVDYCNAGRYNYTDDYWGQGTQVTVSS”, the “polyreactivity (PSR sort gate)” value is “high polyreactivity”.

Turning to “QVQLVESGGGLVQAGGSLRLSCAASGFILVDYAMGWYRQAPGKERELVAAITYDGGSTYYADSVKGRFTISRDNAKNTVYLQMNSLKPEDTAVYYCAADYGYSQYILGQFRLEELDYWGQGTQVTVSS”, the “polyreactivity (PSR sort gate)” value is given as “low polyreactivity”.

As to “QVQLVESGGGLVQAGGSLRLSCAASGFILYFNAMGWYRQAPGKERELVAAITTDGGSTYYADSVKGRFTISRDNAKNTVYLQMNSLKPEDTAVYYCAADASTWYTEEYWGQGTQVTVSS”, the “polyreactivity (PSR sort gate)” value is reported as “low polyreactivity”.

As for “QVQLVESGGGLVQAGGSLRLSCAASGFILYTYAMGWYIQAPGKERELVADIDSGDGTYYADSVKGRFTISRDNAKNTVYLQMNSLKPEDTAVDYCAADYGGASEYGYWGQGTQVTVSS”, the “polyreactivity (PSR sort gate)” value is “low polyreactivity”.

Regarding “QVQLVESGGGLVQAGGSLRLSCAASGFILYVNAMGWYRQAPGKERELVAGITSSGTSTYADSVKGRFTISRDNAKNTVYLQMNSLKPEDTAVYYCAALRRPYGARDYDYWGQGTQVTVSS”, the “polyreactivity (PSR sort gate)” value is reported as “low polyreactivity”.

Regarding “QVQLVESGGGLVQAGGSLRLSCAASGFILYYYAKGWYRPAPGKERELVAAISWSGDSTYYADSVKGRFTISRDNAKNTVYLQMNSLKPEDTAVYYCAATWQLTHRYYWGQGTQVTVSS”, the “polyreactivity (PSR sort gate)” value is reported as “low polyreactivity”.

As for “QVQLVESGGGLVQAGGSLRLSCAASGFISAYYALGWSRQAPGKERELVAGITRGGNTYYADSVKGRFTISRDNAKNTVYLQMNSLKPEDTAVYYCAAEGSHNSEYWGQVTQVTVSS”, the “polyreactivity (PSR sort gate)” value is listed as “high polyreactivity”.

Consider “QVQLVESGGGLVQAGGSLRLSCAASGFISDVYAMGWSRQAPGKEREWVAVITWRGSTYYADSVKGRFTISRDNAKYTVYLQMNSLKPEDTAVYYCAAESQGDWAFDYWGQGTQVTVSS”, for which the “polyreactivity (PSR sort gate)” value is given as “low polyreactivity”.

As to “QVQLVESGGGLVQAGGSLRLSCAASGFISDVYAMGWYRQAPGKERELVAVITWRGSTYYADSVKGRFTISRDNAKNTVYLQMNSLKPEDTAFYYCAAESQGDWAFDYWGQGTQVTVSS”, the “polyreactivity (PSR sort gate)” value is “low polyreactivity”.

In the case of “QVQLVESGGGLVQAGGSLRLSCAASGFISDWYAMGWYRQAPGKERELVATIDWIGGSTYADSVKGRFTISRDNAKNTVYLQMNSLKPEDTAVYYCAADSYFIAWYGAHYAYDYWRQGTQVTVSS”, the “polyreactivity (PSR sort gate)” value is on record as “low polyreactivity”.

For “QVQLVESGGGLVQAGGSLRLSCAASGFISGYYTMRWYRQAPGKARELVAVINSGGSTYYADSVKGRFTISRDNAKNTVYLQMNSLKPEDTAVYYCAKLGGKYSRYYYWGQGTQVTVSS”, the “polyreactivity (PSR sort gate)” value was “low polyreactivity”.

Regarding “QVQLVESGGGLVQAGGSLRLSCAASGFISHYYAMGWYRQAPGKERELVAAIRISGDRTYYADSVKGRFTISRDNAKNTVYLQMNSLKPEDTAVYYCNAVWEYYGKSDYWGQGTQVTVSS”, the “polyreactivity (PSR sort gate)” value is recorded as “low polyreactivity”.

As for “QVQLVESGGGLVQAGGSLRLSCAASGFISTYYAMGWYRQAPGKERELVAAISWNGGSTYYADSVKGRFTISRDNAKNTVYLQMNSLKPEDTAVYYCAAYLGKWRHFYSSDYDYWGQGTQVTVSS”, the “polyreactivity (PSR sort gate)” value was “low polyreactivity”.

Take “QVQLVESGGGLVQAGGSLRLSCAASGFIVDYYAMGWYREAPGKERELVAAIDDSAGSTYYADSVKGRFTISRDNAKNTVYLQMNSLKPEDTAVYYCAADIYVEYDYWGQGTQVTVSS”: the “polyreactivity (PSR sort gate)” value was “low polyreactivity”.

For “QVQLVESGGGLVQAGGSLRLSCAASGFLFPKNAMGWSRQAPGTEMEWVAAISSGGARTYYADSVKGRFTISRDNAQNSVYEQMNSLKPEDTAVYYCAARTSPFWRGGGLDYWGQGTQVTVSS”, the “polyreactivity (PSR sort gate)” value was “high polyreactivity”.

Consider “QVQLVESGGGLVQAGGSLRLSCAASGFLPNAMGWYRQAPGKERELVAAISSRGGSTYYADSVKGRFTISRDNAKNTVYLQMISLKPEDTAVYYCAATYYGRDGYRYDYWGQGTQVTVSS”, for which the “polyreactivity (PSR sort gate)” value is “high polyreactivity”.

On to “QVQLVESGGGLVQAGGSLRLSCAASGFNFDGNAMGWYRQEPGKEMELVARITWDDGSTYYADSVKGRFTISRDNAKNTVYLQMNSLKPEDTAVYYCNTDYGEYYSLDLLWWYIPYDYWGQGTQVTVSS”, for which the “polyreactivity (PSR sort gate)” value was “low polyreactivity”.

As for “QVQLVESGGGLVQAGGSLRLSCAASGFNFEENAMGWYRQAPGKERELVAAINWSGGNTYYADSVKGRFTISRDNAKNTVYLQMNSLKPEDTAVYYCAAEYRSWSWRMDYWGQGTQVTVSS”, the “polyreactivity (PSR sort gate)” value is given as “high polyreactivity”.

Regarding “QVQLVESGGGLVQAGGSLRLSCAASGFNFGYNALGRYRQAPGKEREMVAAISSGGSTYYADSVKGRFTISRDNAKNTVYLQMNSLQPEDTAVYYCAVELGYPIQSYALWWDFEYWGQGTQVTGSS”, the “polyreactivity (PSR sort gate)” value is “low polyreactivity”.

Take “QVQLVESGGGLVQAGGSLRLSCAASGFNFRKYAMGWYRQAPGKERELVASITSGGGSTYYADSVKGRFTISRDNAKNTVYLQMNSLKPEDTAVYYCAAVAYTGGPRKLGFNYWGQGTQVTVSS”: the “polyreactivity (PSR sort gate)” value is “high polyreactivity”.

Consider “QVQLVESGGGLVQAGGSLRLSCAASGFNFVGNAMGWYRQAPGKERELVADITGSDGSTYYADSVKGRFTISRDNAKNTVYLQMNSLKPEDTAVYYCAASPPYKLVWWRRMDYWGQGTQVTVSS”, for which the “polyreactivity (PSR sort gate)” value is “low polyreactivity”.

In the case of “QVQLVESGGGLVQAGGSLRLSCAASGFNFVRYAMGWYRQAPRKERELVAAITRRGGSTHYADSVKGRFTISRDNAKNTVYLQMNSLKPEDTAVYYCGAGRQYYYLDRFPRVQGDYWGQATQVTVSS”, the “polyreactivity (PSR sort gate)” value was “high polyreactivity”.
